# Measured values published in US12648572B2, “Proteolytically stable U1-agatoxin-Ta1b variant polypeptides for pest control” (Vestaron Corporation, priority 2020, dated 2026).
# Where “and” joins values, the source holds several entries; their conditions need not be identical. Identical values can stand only once.
# Key:
# bovine trypsin = target: T1, bovine trypsin (Bos taurus, UniProt P00760); assay: Bovine trypsin digest of TVPs; format: in vitro ADME; details: for Half Life (min) Bovine Trypsin: 1 mg/mL TVP, 0.1 mg/mL bovine trypsin, 50 mM Tris-HCl pH 8.8; for Trypsin digestion, in words: alanine scan of basic amino acids; for Fold Change (Trypsin): half life relative to WT Ta1b
# T1 sequence (P00760 24-246): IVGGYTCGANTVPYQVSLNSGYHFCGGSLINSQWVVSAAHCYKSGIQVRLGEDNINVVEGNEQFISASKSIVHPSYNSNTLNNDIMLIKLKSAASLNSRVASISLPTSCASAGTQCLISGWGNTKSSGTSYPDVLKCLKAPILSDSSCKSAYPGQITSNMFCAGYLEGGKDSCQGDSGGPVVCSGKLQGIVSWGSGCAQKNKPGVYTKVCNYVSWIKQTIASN
# Experimental: (§1) To determine the stability of TVPs when exposed to lepidopteran gut proteases. Briefly, 5th instar Manduca sexta were dissected by making a small incision to the intestinal lining such that gut contents could be collected in a tube. Multiple dissections were pooled and kept on ice for immediate use, or stored at −80° C. for future use. The isolated midgut (referred to hereinafter as Manduca Gut Extract, or MGE) was then for digest assays. Next, 1 mg/mL TVP was incubated with 0.1 mg/mL bovine trypsin, or 1/10 diluted MGE with 50 mM Tris-HCl, pH 8.8 to maintain alkaline pH. Time points were taken and the digest quenched with the addition of 200 mM HCl. Degradation was quantified by HPLC analysis and rates were determined by fit to a single exponential decay.
# Lepidopteran gut contains trypsin-like proteases that cut after Arg or Lys amino acids; without wishing to be bound by any particular theory, we hypothesized that singly mutating these amino acids to alanine could identify the site(s) that are causing degradation in lepidopteran gut. To test the foregoing hypothesis, TVPs were created by individually mutating each basic amino acid to alanine present in the wild-type Ta1b amino acid sequence. Next, the stability of each of these TVPs was assessed by confronting the TVPs with the digestion conditions as described above.
# [1] = tested on: Manduca Gut Extract (MGE); assay: Manduca Gut Extract (MGE) digest of TVPs; format: in vitro ADME, Manduca sexta; details: for Half Life (min) Manduca Gut Extract (MGE): 1 mg/mL TVP, 1/10 diluted MGE, 50 mM Tris-HCl pH 8.8; for Fold Stability Improvement: in the presence of MGE, relative to Ta1b; for Fold Change (MGE): half life relative to WT Ta1b
# Experimental: as §1
# (§2) TVPs were assessed for stability in the presence of MGE (as described above). Activity was assessed by injection into houseflies (Musca domestica): […] intrathoracically into houseflies with an average mass of 18 mg. The dose required for 50% knockdown and mortality was determined at 24 hour post-injection.
# [2] = tested on: houseflies (Musca domestica); assay: Housefly injection assay; format: in vivo; details: for Fly KD50: dose for 50% knockdown, 24 hours post-injection; for Activity relative to wild-type Ta1b, in words: housefly injection; for Fold Activity Reduction: housefly intrathoracic injection, 24 hour post-injection, relative to wild-type Ta1b
# Experimental: as §2
# Activity of the TVPs identified in the mutant stability assay were assessed by injection into houseflies (Musca domestica). Wild-type Ta1b and the TVPs with amino acid substitutions at positions R9Q and R9N were injected intrathoracically into houseflies with an average mass of 18 mg, at an injection dose of 0.5 μL of toxin or control. The dose of TVP required for 50% knockdown (KD50) was then determined at 24-hours post-injection. […] FIG. 2.
# The TVPs: (1) TVP-R9Q; (2) TVP-R9QΔG; (3) TVP-R9Q/T43A/ΔG; (4) TVP-R9Q/T43A; and (5) TVP-R9Q/T43A/ΔK-G, were analyzed in a housefly injection assay. Housefly injections were performed as previously described herein.
# [3] = tested on: corn earworm (Helicoverpa zea); assay: Corn earworm injection assay; format: in vivo; details: fourth instar larvae, 24 hours after injection; ± standard error of the mean
# Experimental: First, WT Ta1b (WT) and the R9Q mutant of Ta1b (TVP-R9Q) were evaluated in a lepidopteran injection assay. The experimental unit consisted of 8 injected individual corn earworm (Helicoverpa zea) per peptide dose. There were four experimental replicates per peptide. Prior to injection, corn earworm larvae were reared to their fourth instar on standard lepidoptera diet. The larvae were weighed to determine accurate dose calculations. The exact doses varied slightly between replicates because of variations in corn earworm larvae mass, but the approximate doses injected were: 1000, 2000, 4000, and 8000 pmol/g. Injections were performed using a hand microapplicator and a syringe fitted with a 30 gauge needle. Larvae were injected at the base of one of their most posterior prolegs. Larvae were injected with 1 μL of treatment solution.
# After injection, larvae were placed in a well of a 32-well tray filled with 5 mL of standard lepidoptera diet. The trays were then placed in a 28° C. Incubator. The condition of the larvae were evaluated 24 hours after injection.
# [4] = tested on: neonate corn earworm (Helicoverpa zea); assay: Corn earworm oral foliar bioassay; format: in vivo; details: sprayed lettuce leaf discs, fourth day, ± standard error of the mean
# Experimental: In the oral foliar bioassay, the experimental unit consisted of 12 leaf discs (per peptide concentration) sprayed (front and back) with a total spray volume of 5.5 mL (2.75 mL for each side) on which neonate corn earworm (Helicoverpa zea) were allowed to feed. There were four experimental replicates per peptide.
# Romaine lettuce was cut into 30 mm diameter disks, and then sterilized using a 140 ppm bleach solution; the disks were then triple rinsed in water. The romaine lettuce disks were then pinned to a Styrofoam board and sprayed with a given treatment; the disks were flipped, sprayed again, allowed to dry, and placed in the arena.
# The arena was 32-well rearing tray containing 5 mL of 1% agar. One romaine lettuce disk was placed in each well, with a single first instar corn earworm (Helicoverpa zea) per leaf disk. The trays were then placed in a 28° C. Incubator.
# Mortality of the corn earworms was evaluated on the fourth day after spraying and larvae application to the leaf discs. Larvae were scored as either alive (moving and feeding normally) or dead (immobile, discolored).
# [5] = tested on: Helicoverpa gut extract (HGE); assay: Helicoverpa gut extract (HGE) digest, position 9 scan; format: in vitro ADME, Helicoverpa zea; details: for Half-Life: 30 mM Tris-HCl pH 8.8, time points 0, 3, 22.5 hours
# Experimental: To determine the stability of TVPs when exposed to lepidopteran gut proteases, early fifth instar Helicoverpa zea larvae were dissected to remove the intact digestive tract from other tissues and hemolymph. To obtain the Helicoverpa gut extract (HGE), a small incision was made to the intestinal lining such that gut contents could be collected in a tube. Multiple dissections were pooled and kept on ice for immediate use, or stored at −80° C. for future use.
# Wild-type Ta1b (SEQ ID NO: 1) was used as a template, and mutated at amino acid substitution at position 9, (i.e., R9; SEQ ID NO: 1) to produce the TVPs evaluated here; these TVPs have a substitution of the arginine at position 9 (i.e., R9) of the wild-type amino acid sequence (SEQ ID NO: 1), with one of the amino acids F, P, Y, K, W, H, A, G, N, L, D, V, M, I, Q, C, E, T, and S; in addition, a TVP with an R9Q+T43A mutation (relative to wild-type Ta1b) was likewise evaluated (SEQ ID NO: 85).
# The TVPs described above and shown in Table 19 were confronted with Helicoverpa gut extract (HGE) to simulate digestion in the lepidopteran gut environment. Here, the TVPs were incubated with 6× diluted amount of HGE obtained from Helicoverpa deep well cell growths. The 6× diluted UGE was supplemented with 30 mM Tris-HCl, pH 8.8, to maintain the alkaline pH of the Helicoverpa gut environment.
# Samples of the digested TVPs were collected at time points of 0, 3, and 22.5 hours. To quench the digestion process, 30 mM Glycine, pH 2.0 was added to the samples, and the samples of the digested TVPs were immediately analyzed using reverse-phase HPLC to quantify the TVP peak area.
Substance,Half Life (min) Bovine Trypsin (bovine trypsin),Fold Stability Improvement [1],"Activity relative to wild-type Ta1b, in words [2]",Fold Activity Reduction [2],other results
"EPDEICRARMTNKEFTYKSNVCNNCGDQVAACEAECFRNDVYTACHEAQKG (listed as Eratigena agrestis) [WT Ta1b, reference compound]",288 min,,,,Half Life (min) Manduca Gut Extract (MGE) [1]: 1.5 min; Fly KD50 [2]: 167 pmol/g; Injection LD50 [3]: 2933 ± 827 pmol/g; Oral Bioassay % Mortality at 3 ppt [4]: 6 ± 3%; Half-Life ([5]; 6× diluted HGE): 1.9 h
T11P: TVP with substitution T11P (EPDEICRARMPNKEFTYKSNVCNNCGDQVAACEAECFRNDVYTACHEAQKG; listed as Eratigena agrestis),,92.9 fold,maintain activity similar to the native Ta1b,1.4 fold,"Digestibility by Manduca Gut Extract (MGE), in words [1]: significant reduction in digestibility"
R38A: TVP: wild-type Ta1b with basic amino acid R38 mutated to alanine (EPDEICRARMTNKEFTYKSNVCNNCGDQVAACEAECFANDVYTACHEAQKG; listed as Eratigena agrestis),1860 min,8.6 fold,did not show any reduction in activity,1.0 fold,"Trypsin digestion, in words (bovine trypsin): modest, albeit significant reduction in digestibility; Fold Change (Trypsin) (bovine trypsin): 6.5 fold; Half Life (min) Manduca Gut Extract (MGE) [1]: 19 min; Fold Change (MGE) [1]: 8.6 fold"
EPDEICRANMTNKEFTYKSNVCNNCGDQVAACEAECFRNDVYTACHEAQKG (TVP-R9N),,>50 fold,maintain activity similar to the native Ta1b,1.5 fold,"Digestibility by Manduca Gut Extract (MGE), in words [1]: significant reduction in digestibility"
EPDEICRAHMTNKEFTYKSNVCNNCGDQVAACEAECFRNDVYTACHEAQKG (TVP-R9H),,16.2 fold,,2.5 fold,
A8S: TVP with substitution A8S (EPDEICRSRMTNKEFTYKSNVCNNCGDQVAACEAECFRNDVYTACHEAQKG; listed as Eratigena agrestis),,12.1 fold,maintain activity similar to the native Ta1b,1.3 fold,"Digestibility by Manduca Gut Extract (MGE), in words [1]: significant reduction in digestibility"
EPDEICRAEMTNKEFTYKSNVCNNCGDQVAACEAECFRNDVYTACHEAQKG (TVP-R9E),,,,>10 fold,
TVP-R9Q/ΔG: TVP-R9Q with the C-terminal glycine removed (EPDEICRAQMTNKEFTYKSNVCNNCGDQVAACEAECFRNDVYTACHEAQK; C-terminal Gly deleted; TVP-R9QdG),,,,,Fly KD50 [2]: 136 pmol/g
EPDEICRAAMTNKEFTYKSNVCNNCGDQVAACEAECFRNDVYTACHEAQKG (TVP-R9A),>6000 min,247 fold,,9 fold and 8.7 fold,"Trypsin digestion, in words (bovine trypsin): completely abolished trypsin digestion; Fold Change (Trypsin) (bovine trypsin): >20 fold; Half Life (min) Manduca Gut Extract (MGE) [1]: 370 min; Fold Change (MGE) [1]: 247 fold"
A8N: TVP with substitution A8N (EPDEICRNRMTNKEFTYKSNVCNNCGDQVAACEAECFRNDVYTACHEAQKG; listed as Eratigena agrestis),,1.8 fold,,,
EPDEICRATMTNKEFTYKSNVCNNCGDQVAACEAECFRNDVYTACHEAQKG (TVP-R9T) [T (Position 9)],,,,,"Result (Stable/Unstable) ([5]; 6× diluted HGE): Stable; Half-Life ([5]; 6× diluted HGE): 95.8 h; Gut extract digestion, in words ([5]; 6× diluted gut extract, relative to wild type Ta1b): completely abolished UGE digestion"
K18A: TVP: wild-type Ta1b with basic amino acid K18 mutated to alanine (EPDEICRARMTNKEFTYASNVCNNCGDQVAACEAECFRNDVYTACHEAQKG; listed as Eratigena agrestis),1194 min,,,,"Trypsin digestion, in words (bovine trypsin): modest, albeit significant reduction in digestibility; Fold Change (Trypsin) (bovine trypsin): 4.1 fold"
